Experimental data as given in patent US20100254992A1.
Blank lines part the entries; values can stand above or below the binder they belong to.

Tests used:
[1] = target: Human Monocyte Chemoattractant Protein-1 (MCP-1) (human) (UniProt P13500); experiment: cell-based or functional assay
[2] = target: Human Monocyte Chemoattractant Protein-1 (MCP-1) (human) (UniProt P13500); experiment: IGEN (BioVeris), MCP-1 Kd
[3] = target: Human Monocyte Chemoattractant Protein-1 (MCP-1) (human) (UniProt P13500); experiment: 125I-MCP-1 binding to CCR2 on THP-1 cells, radioligand competition
[4] = target: HuMCP-1-His6 (wild type) (human) (UniProt P13500); experiment: Biacore
[5] = target: HuMCP-1-His6 Mutant-6 (66D → 66K) (human) (UniProt P13500); experiment: Biacore
[6] = target: HuMCP-1-His6 (wild type) (human) (UniProt P13500); experiment: Biacore, C775 captured, MCP-1-His6 in solution
[7] = target: HuMCP-1-His6 Mutant-1 (33SSK35 → 33NIQ35) (human) (UniProt P13500); experiment: Biacore, C775 captured, MCP-1-His6 in solution
[8] = target: HuMCP-1-His6 Mutant-2 (6NA7 → 6SI7) (human) (UniProt P13500); experiment: Biacore, C775 captured, MCP-1-His6 in solution
[9] = target: HuMCP-1-His6 Mutant-3 (15FT16 → 15VI16) (human) (UniProt P13500); experiment: Biacore, C775 captured, MCP-1-His6 in solution
[10] = target: HuMCP-1-His6 Mutant-4 (29R → 29T) (human) (UniProt P13500); experiment: Biacore, C775 captured, MCP-1-His6 in solution
[11] = target: HuMCP-1-His6 Mutant-5 (46IV47 → 46KR47) (human) (UniProt P13500); experiment: Biacore, C775 captured, MCP-1-His6 in solution
[12] = target: HuMCP-1-His6 Mutant-6 (66D → 66K) (human) (UniProt P13500); experiment: Biacore, C775 captured, MCP-1-His6 in solution
[13] = target: HuMCP-1-His6 Mutant-7 (4AINA7 → 4SVSI7) (human) (UniProt P13500); experiment: Biacore, C775 captured, MCP-1-His6 in solution
[14] = target: HuMCP-1-His6 Mutant-8 (4AINA7 → 4GGGG7) (human) (UniProt P13500); experiment: Biacore, C775 captured, MCP-1-His6 in solution
[15] = target: HuMCP-1-His6 Mutant-9 (4AINA7 . . . 46IV47 → 4SVSI7 . . . 46KR47) (human); experiment: Biacore, C775 captured, MCP-1-His6 in solution
[16] = target: HuMCP-1-His6 Mutant-P8A (human) (UniProt P13500); experiment: Biacore, C775 captured, MCP-1-His6 in solution
[17] = target: HuMCP-1-His6 Mutant-Y13A (human) (UniProt P13500); experiment: Biacore, C775 captured, MCP-1-His6 in solution
Sequence of HuMCP-1-His6 Mutant-Y13A (human) (P13500 24-99 Y36A limits assumed): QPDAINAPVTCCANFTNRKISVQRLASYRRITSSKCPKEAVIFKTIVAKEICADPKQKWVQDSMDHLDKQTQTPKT

Sequence of HuMCP-1-His6 (wild type) (human) (P13500 24-99 limits assumed): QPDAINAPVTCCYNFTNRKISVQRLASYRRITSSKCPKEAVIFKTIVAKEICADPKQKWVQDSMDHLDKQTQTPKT
Sequence of Human Monocyte Chemoattractant Protein-1 (MCP-1) (human) (P13500 24-99 limits assumed): as above
Sequence of HuMCP-1-His6 Mutant-3 (15FT16 → 15VI16) (human) (P13500 other isoform, or with tags, fused parts or gaps mutant limits assumed): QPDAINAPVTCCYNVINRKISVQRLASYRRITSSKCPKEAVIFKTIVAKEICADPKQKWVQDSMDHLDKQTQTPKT
Sequence of HuMCP-1-His6 Mutant-5 (46IV47 → 46KR47) (human) (P13500 other isoform, or with tags, fused parts or gaps mutant limits assumed): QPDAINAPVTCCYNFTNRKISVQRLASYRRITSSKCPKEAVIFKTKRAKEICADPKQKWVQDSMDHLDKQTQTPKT
Sequence of HuMCP-1-His6 Mutant-4 (29R → 29T) (human) (P13500 other isoform, or with tags, fused parts or gaps mutant limits assumed): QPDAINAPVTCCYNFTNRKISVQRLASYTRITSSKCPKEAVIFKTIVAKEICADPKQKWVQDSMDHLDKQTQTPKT
Sequence of HuMCP-1-His6 Mutant-9 (4AINA7 . . . 46IV47 → 4SVSI7 . . . 46KR47) (human) (chain, as listed by the source mutant limits assumed): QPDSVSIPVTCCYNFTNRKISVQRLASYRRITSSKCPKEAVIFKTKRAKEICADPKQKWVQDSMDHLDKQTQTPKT
Sequence of HuMCP-1-His6 Mutant-7 (4AINA7 → 4SVSI7) (human) (P13500 other isoform, or with tags, fused parts or gaps mutant limits assumed): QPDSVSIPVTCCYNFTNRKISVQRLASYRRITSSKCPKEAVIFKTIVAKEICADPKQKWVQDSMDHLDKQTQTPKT
Sequence of HuMCP-1-His6 Mutant-2 (6NA7 → 6SI7) (human) (P13500 other isoform, or with tags, fused parts or gaps mutant limits assumed): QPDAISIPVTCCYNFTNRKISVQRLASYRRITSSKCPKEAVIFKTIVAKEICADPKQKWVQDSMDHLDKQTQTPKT
Sequence of HuMCP-1-His6 Mutant-1 (33SSK35 → 33NIQ35) (human) (P13500 other isoform, or with tags, fused parts or gaps mutant limits assumed): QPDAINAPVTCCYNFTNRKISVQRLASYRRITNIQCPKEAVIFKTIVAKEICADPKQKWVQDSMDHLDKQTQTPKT
Sequence of HuMCP-1-His6 Mutant-6 (66D → 66K) (human) (P13500 other isoform, or with tags, fused parts or gaps mutant, form in doubt): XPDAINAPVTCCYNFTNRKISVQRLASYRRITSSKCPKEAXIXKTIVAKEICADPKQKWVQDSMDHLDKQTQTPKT
Sequence of HuMCP-1-His6 Mutant-P8A (human) (P13500 other isoform, or with tags, fused parts or gaps limits assumed, stated change not applied): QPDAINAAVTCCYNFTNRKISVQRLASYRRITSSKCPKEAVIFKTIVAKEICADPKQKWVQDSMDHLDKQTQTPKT
Sequence of HuMCP-1-His6 Mutant-8 (4AINA7 → 4GGGG7) (human) (P13500 other isoform, or with tags, fused parts or gaps mutant limits assumed): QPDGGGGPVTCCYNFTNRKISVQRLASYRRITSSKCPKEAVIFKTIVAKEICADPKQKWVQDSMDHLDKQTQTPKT

Inhibition of Ca2+ Mobilization IC50 [1]: 71.5 nM | Kd [2]: 65 nM | IC50 [3]: 35.6 nM
B1: C775 Fab (reference Fab) (Fab, from another filing, V domains shown)
VH: QVQLKQSGAELVRPGASVKLSCKASGYTFTDYYINWVKQRPGQGLEWIARIYPGTGNTYYNENFKGKATLTAEKSSSTAYMQLSSLTSEDSAVYFCARSGSTVVGNYYGMDYWGQGTSVTVSS
VL: SIVMTQTPKFLLVSAGDRVSITCKASQSVSNDVAWYQQKPGQSPKLLIYYASNRYTGVPDRFTGSGYGTDFTFTISTVQAEDLAVYFCQQDYSSPWTFGGGTKLEIKR

Kd [4]: 3 nM | fold decrease in fold change in binding affinity against wild type MCP-1 [5]: 9 fold | Inhibition of Ca2+ Mobilization IC50 [1]: 62.3 nM | Kd [6]: 3.1 nM | koff [6]: 0.00503 s⁻¹ | kon [6]: 1.64e+06 M⁻¹ s⁻¹ | Kd [7]: 2 nM | koff [7]: 0.0034 s⁻¹ | kon [7]: 1.6e+06 M⁻¹ s⁻¹ | Kd [8]: 6.3 nM | koff [8]: 0.00548 s⁻¹ | kon [8]: 868000 M⁻¹ s⁻¹ | Kd [9]: 4.5 nM | koff [9]: 0.0074 s⁻¹ | kon [9]: 1.66e+06 M⁻¹ s⁻¹ | Kd [10]: 3 nM | koff [10]: 0.0027 s⁻¹ | kon [10]: 880000 M⁻¹ s⁻¹ | Kd [11]: 1.7 nM | koff [11]: 0.00278 s⁻¹ | kon [11]: 1.64e+06 M⁻¹ s⁻¹ | Kd [12]: 27.7 nM | koff [12]: 0.00541 s⁻¹ | kon [12]: 195000 M⁻¹ s⁻¹ | Kd [13]: 4.5 nM | koff [13]: 0.00327 s⁻¹ | kon [13]: 720000 M⁻¹ s⁻¹ | Kd [14]: 5.5 nM | koff [14]: 0.00947 s⁻¹ | kon [14]: 1.73e+06 M⁻¹ s⁻¹ | Kd [15]: 1.7 nM | koff [15]: 0.00531 s⁻¹ | kon [15]: 3.16e+06 M⁻¹ s⁻¹ | Kd [16]: 2.6 nM | koff [16]: 0.00448 s⁻¹ | kon [16]: 1.75e+06 M⁻¹ s⁻¹ | Kd [17]: 1.7 nM | koff [17]: 0.003 s⁻¹ | kon [17]: 1.79e+06 M⁻¹ s⁻¹ | IC50 [3]: 25.6 nM
B2: C775 (murine anti-human MCP-1 antibody, IgG) (antibody, from another filing, V domains shown)
VH: B1 VH
VL: B1 VL
